The experiment addresses T1, GST-SHIP164-CT (residues 1063–1364) (UniProt A0JNW5 1063-1364).
T1 construct: SHIP164, fragment of the C-terminal region, residues 1063-1364; also called purified SHIP164-CT fragment (residues 1063–1364); source: TSsetta (DE3) cells, purified (GST-tag resin)
In words: pull-down; GST pull-down: purified GST protein on GST tag resin, His fusion protein added, 12 h at 4 °C, HNM buffer (20 mM HEPES pH 7.4, 100 mM NaCl, 5 mM MgCl2, 1 mM DTT, 0.2% NP-40); blot with anti-GST or His antibodies. The note with it: both partners purified.

T1 sequence (A0JNW5 1063-1364): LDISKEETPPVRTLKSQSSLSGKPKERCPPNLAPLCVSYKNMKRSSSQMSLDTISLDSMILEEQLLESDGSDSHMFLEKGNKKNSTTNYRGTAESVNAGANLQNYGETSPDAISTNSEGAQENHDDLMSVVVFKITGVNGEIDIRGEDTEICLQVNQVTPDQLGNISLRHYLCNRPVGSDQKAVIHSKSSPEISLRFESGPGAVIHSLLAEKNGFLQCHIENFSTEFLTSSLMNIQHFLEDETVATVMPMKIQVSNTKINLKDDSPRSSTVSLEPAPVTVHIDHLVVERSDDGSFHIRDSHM

B1: His-Vps26B-NT (residues 1–160) (domain or fragment, UniProt Q4G0F5 1-160, looked up)
chain: MSFFGFGQSVEVEILLNDAESRKRAEHKTEDGKKEKYFLFYDGETVSGKVSLALKNPNKRLEHQGIKIEFIGQIELYYDRGNHHEFVSLVKDLARPGEITQSQAFDFEFTHVEKPYESYTGQNVKLRYFLRATISRRLNDVVKEMDIVVHTLSTYPELNS
notes: Vps26B N-terminal region, residues 1-160; also called His-Vps26B NT region; purified Vps26B-NT fragment; source: TSsetta (DE3) cells, purified (Ni-NTA resin)
Regarding B1, the binding result is “binds”.

The values above are taken from paper PMC10987540, “Biogenesis of Rab14-positive endosome buds at Golgi–endosome contacts by the RhoBTB3–SHIP164–Vps26B complex” (Cell Discovery, 2024).
